Experimental data from patent publication US6103888A, “Mammalian cationic proteins having lipopolysaccharide binding and anti-coagulant activity” (priority 1999, dated 2000).
Where “and” joins values, the source holds several entries; their conditions need not be identical. Equal entries are not always repeated.

Legend:
[1] = system: encapsulated E. coli; conditions: cited from earlier work
[2] = system: rough mutant strain of Proteus mirabilis; conditions: cited from earlier work
[3] = system: wild-type smooth Proteus mirabilis; conditions: wild-type smooth organism (Proteus mirabilis); cited from earlier work
[4] = system: Staphylococcus aureus; conditions: Gram-positive Staphylococcus aureus; cited from earlier work
[5] = system: human mononuclear cells; experiment: LPS-induced tissue factor by human mononuclear cells (clotting assay); assay type: cell-based
Procedure: Human mononuclear cells were separated from citrated peripheral blood by centrifugation over Sodium-metrizoate-Ficoll (lymphocyte Separation Medium, Japan Antibody Institute, Gumma). The resulting mixed mononuclear cell suspension was washed 3 times with RPMI 1640 media. Cell suspension (1×10^6 /ml) was stimulated with LPS for 16 to 18 hr.
Veronal buffered saline (VBS) was added to the cell pellet, lysed by 3 cycles of freeze/thaw and sonicated for 10 sec with a hand-held sonicator microbe (Handy Sonic, model UR-20P, Tomy Seiko LTD, Tokyo). Tissue factor activity was tested in modified unactivated partial thromboplastin time (7). One tenth ml of cell lysate (1×10^6 /ml) was preincubated with mouse plasma at 37° C. for 3 min. Then 0.1 ml of 25 mM-CaCl2 which contains phospholipid was added to the mixture and clotting time was measured using a fibrometer (Bio Quest Division, Becton Dickinson, Cokeysville, USA). A standard curve obtained from serial two-fold dilutions of rabbit brain thromboplastic (Simplastin, Ono Pharmaceutical Co.) was used to transpose tissue factor activity into arbitrary tissue factor units (1 μg/ml) suspension of rabbit brain was assigned a value of 1,000 units).
The mean tissue factor units+standard error was determined from three to four samples. Student's t test for unpair data was used to determine the statistically significant differences. A two-tailed P value of <0.05 was considered significant. […]

[6] = system: galactosamine-sensitized mice; assay type: in vivo; conditions: CAP18 40 μg IP alone, no galactosamine, no Re-LPS; groups of 10 mice
Description: Galactosamine sensitizes mice to the lethal effects of LPS by a factor 1000 or more. CAP18 and LPS were mixed and injected IP into sensitized mice. CAP18 can neutralize the lethal effects of LPS in this model of endotoxemia (see Table 8).

[7] = LPS 0.1 μg/ml, peptide HA units: RNIP 2, CAP-18 1, HP-1 4, HP-2 2

B1: BPI55: BPI holoprotein (protein, UniProt P17213 32-487, looked up)
Bactericidal …: VNPGVVVRISQKGLDYASQQGTAALQKELKRIKIPDYSDSFKIKHLGKGHYSFYSMDIREFQLPSSQISMVPNVGLKFSISNANIKISGKWKAQKRFLKMSGNFDLSIEGMSISADLKLGSNPTSGKPTITCSSCSSHINSVHVHISKSKVGWLIQLFHKKIESALRNKMNSQVCEKVTNSVSSELQPYFQTLPVMTKIDSVAGINYGLVAPPATTAETLDVQMKGEFYSENHHNPPPFAPPVMEFPAAHDRMVYLGLSDYFFNTAGLVYQEAGVLKMTLRDDMIPKESKFRLTTKFFGTFLPEVAKKFPNMKIQIHVSASTPPHLSVQPTGLTFYPAVDVQAFAVLPNSSLASLFLIGMHTTGSMEVSAESNRLVGELKLDRLLLELKHSNIGPFPVELLQDIMNYIVPILVLPRVNEKLQKGFPLPTPARVQLYNVVLQPHQNFLLFGADVVYK
[1]
  growth inhibitory activity, reduction over control: about 100 fold
[2]
  growth inhibition: inhibited the growth
[3]
  growth inhibition: only the rBPI23 inhibited growth
[4]
  growth inhibition: Neither rBPI23 nor holoprotein BPI55 demonstrated inhibition

B2: CAP18: cationic protein from rabbit granulocytes, 16.6 kD, SEQ ID NO:4 (protein)
chain: METHKHGPSLAWWSLLLLLLGLLMPPAIAQDLTYREAVLRAVDAFNQQSSEANLYRLLSMDPQQLEDAKPYTPQPVSFTVKETECPRTTWKLPEQCDFKEDGLVKRCVGTVTRYQAWDSFDIRCNRAQESPEPTGLRKRLRKFRNKIKEKLKKIGQKIQGLLPKLAPRTDY
[5]; [7]
  Inhibition (%): 30% and 35%
  Tissue Factor Units, value in parentheses (ratio to unstimulated control): 9.9
[5]; LPS 0.1 μg/ml, relative to LPS alone (100)
  Δ Units (%): 70% and 65%
[5]; no LPS, peptide alone
  Tissue Factor Units, value in parentheses (ratio to unstimulated control): 1.2
  Tissue factor units: 583 ± 178 Units ×10^3 /3.6 × 10^4 cells
  Δ Units: 235 Units
[6]
  Lethality (%): 0%
